Data from patent US20030040042A1, “Recombinant fibroblast growth factors” (published 2003).
Changes are numbered by the printed parent chain.

T1: FGF receptor on bovine adrenal cortex capillary endothelial (ACE) cells (bovine, UniProt P12820)
T1 sequence: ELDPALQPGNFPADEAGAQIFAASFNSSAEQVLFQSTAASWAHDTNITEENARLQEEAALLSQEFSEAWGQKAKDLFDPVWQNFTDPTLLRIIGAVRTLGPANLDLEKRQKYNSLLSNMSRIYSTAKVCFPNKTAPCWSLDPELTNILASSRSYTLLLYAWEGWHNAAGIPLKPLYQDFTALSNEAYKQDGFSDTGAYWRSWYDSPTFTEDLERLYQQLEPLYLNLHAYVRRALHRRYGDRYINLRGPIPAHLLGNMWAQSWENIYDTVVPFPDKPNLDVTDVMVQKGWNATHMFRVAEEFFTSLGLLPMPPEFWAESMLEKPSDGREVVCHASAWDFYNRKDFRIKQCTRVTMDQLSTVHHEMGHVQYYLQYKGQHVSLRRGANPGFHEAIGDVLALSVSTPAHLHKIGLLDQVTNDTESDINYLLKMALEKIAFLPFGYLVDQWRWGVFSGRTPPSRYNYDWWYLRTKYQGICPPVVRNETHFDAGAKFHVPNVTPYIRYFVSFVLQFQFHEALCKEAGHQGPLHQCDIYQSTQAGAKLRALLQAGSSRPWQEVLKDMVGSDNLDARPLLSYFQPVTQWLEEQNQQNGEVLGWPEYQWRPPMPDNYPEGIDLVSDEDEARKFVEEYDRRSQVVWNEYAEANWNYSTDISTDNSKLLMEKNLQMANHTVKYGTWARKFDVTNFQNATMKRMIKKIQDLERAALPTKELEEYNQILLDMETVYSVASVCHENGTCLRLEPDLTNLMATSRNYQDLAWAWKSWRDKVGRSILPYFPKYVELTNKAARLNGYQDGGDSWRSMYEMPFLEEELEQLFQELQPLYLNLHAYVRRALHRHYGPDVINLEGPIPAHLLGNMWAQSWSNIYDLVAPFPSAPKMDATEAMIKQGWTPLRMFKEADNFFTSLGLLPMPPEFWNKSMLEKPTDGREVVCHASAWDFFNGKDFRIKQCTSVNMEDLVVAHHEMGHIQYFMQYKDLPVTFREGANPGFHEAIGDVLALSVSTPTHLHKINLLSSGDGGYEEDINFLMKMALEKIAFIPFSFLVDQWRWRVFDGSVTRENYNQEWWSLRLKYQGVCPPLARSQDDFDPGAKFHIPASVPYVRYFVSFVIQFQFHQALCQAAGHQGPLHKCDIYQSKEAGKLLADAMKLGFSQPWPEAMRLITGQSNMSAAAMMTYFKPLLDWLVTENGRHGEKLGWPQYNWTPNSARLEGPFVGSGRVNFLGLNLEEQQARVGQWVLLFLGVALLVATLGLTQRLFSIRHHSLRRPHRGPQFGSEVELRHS

B1: bFGF-C34/78/101S (ligand)
chain: MAAGSITTLPALPEDGGSGAFPPGHFKDPKRLYSKNGGFFLRIHPDGRVDGVREKSDPHIKLQLQAEERGVVSIKGVSANRYLAMKEDGRLLASKCVTDESFFFERLESNNYNTYRSRKYTSWYVALKRTGQYKLGSKTGPGQKAILFLPMSAKS
B2: bFGF-C34/78/96/101S (ligand)
chain: B1 chain with C96S
B3: bFGF-C78/96/101S (ligand)
chain: B1 chain with S34C, C96S

What was measured:
[1] = target: FGF receptor on Balb/c 3T3 cells
[2] = target: FGF receptor on Balb/c 3T3 cells; remark: listed apart in the source
[3] = target: FGF receptor on bovine adrenal cortex capillary endothelial (ACE) cells (bovine) (UniProt P12820)
[4] = target: FGF receptor on Balb/c 3T3 cells; test: competition with [125I]-bFGF on Balb/c 3T3 cells
[5] = target: FGF receptor on Balb/c 3T3 cells; test: competition with [125I]-bFGF on Balb/c 3T3 cells, no heparin
[6] = target: FGF receptor on Balb/c 3T3 cells; test: competition with [125I]-bFGF on Balb/c 3T3 cells, 1 ug/ml heparin
[7] = target: T1, FGF receptor on bovine adrenal cortex …; test: cell-based or functional assay

Row | Molecule | 3T3 Mito., 1 ug/ml heparin (ED50 wild type / ED50 analog x 100%) (% of wild type) [1] | 3T3 Mito., no heparin (ED50 wild type / ED50 analog x 100%) (% of wild type) [1] | inhibition of the activity of 1 ng/ml wild type bFGF in the 3T3 mitogenic assay, no heparin [2] | 3T3 Mito. (thymidine uptake), EC50 (ED50) [1] | ACE Mito., 1 ug/ml heparin (ED50 wild type / ED50 analog x 100%) (% of wild type) [3] | ACE Mito., no heparin (ED50 wild type / ED50 analog x 100%) (% of wild type) [3] | ACE cell proliferation, EC50 (ED50) [3] | 3T3 mitogenic assay, ED50 in the absence of bFGF(25-155) [2] | 3T3 mitogenic assay, ED50 in the presence of 10 ng/ml bFGF(25-155) [2] | 3T3 mitogenic assay, ED50 in the presence of 100 ng/ml bFGF(25-155) [2] | EC50 [4] | FGF-Rc Comp. (ED50 analog / ED50 wild type FGF) [5] | FGF-Rc Comp. (ED50 analog / ED50 wild type FGF) [6] | ACE Mito., 1 ug/ml heparin (ED50 wild type / ED50 analog x 100%) [7] | ACE Mito., no heparin (ED50 wild type / ED50 analog x 100%) [7]
1 | bFGF(25-155) (from UniProt P09038-2) (ligand) | 100 | 50 | > 95% | – | – | – | – | – | – | – | – | – | – | – | –
2 | recombinant human basic FGF (wild type) (from UniProt P09038-2) (ligand) | 100 | 100 | – | 0.63 ng/mL | 100 | 100 | 0.16 ng/mL | < 1 ng/mL | 10 ng/mL | 100 ng/mL | 10 ng/mL | 1 | 1 | – | –
3 | B1 | 144 | 65 | – | – | – | – | – | – | – | – | – | 0.45 | 0.5 | 72 % of wild type | 2 % of wild type
4 | B2 | – | – | – | – | – | – | – | – | – | – | – | 1 | 0.5 | 119 % of wild type | 7 % of wild type
5 | B3 | – | – | – | – | – | – | – | – | – | – | – | – | – | 125 % of wild type | 23 % of wild type
